The values below come from patent publication US6797811.

Assay [1] deals with T1, FLAG-tagged 88C receptor (human, UniProt P51681 1-352).
T1 sequence: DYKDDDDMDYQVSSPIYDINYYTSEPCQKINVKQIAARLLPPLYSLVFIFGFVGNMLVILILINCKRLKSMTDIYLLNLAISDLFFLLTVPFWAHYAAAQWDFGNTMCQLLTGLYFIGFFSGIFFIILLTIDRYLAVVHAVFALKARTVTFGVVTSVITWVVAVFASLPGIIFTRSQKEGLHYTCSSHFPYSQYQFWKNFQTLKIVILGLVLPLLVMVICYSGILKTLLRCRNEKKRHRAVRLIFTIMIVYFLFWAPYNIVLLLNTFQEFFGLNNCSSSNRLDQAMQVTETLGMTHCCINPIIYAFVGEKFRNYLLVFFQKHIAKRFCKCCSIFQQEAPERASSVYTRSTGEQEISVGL
Briefly: competition of unlabelled ligand with 1.5 nM 125I-MIP-1β on HEK-293 cells expressing FLAG-tagged 88C. The text has this:
(§1) Another assay for receptor interaction with chemokines was a modification of the binding assay described by Ernst et al. *J. Immunol.* 152:3541–3549 (1994). MIP-1β as labeled using the Bolton and Hunter reagent (di-iodide, NEN, Wilmington, Del.), according to the manufacturer's instructions. Unconjugated iodide was separated from labeled protein by elution using a PD-10 column (Pharmacia) equilibrated with PBS and BSA (1% w/v). The specific activity was typically 2200 Ci/mmole. Equilibrium binding was performed by adding ^125I-labeled ligand with or without a 100-fold excess of unlabeled ligand, to 5×10^5 HEK-293 cells transfected with 88C tagged with the FLAG epitope in polypropylene tubes in a total volume of 300 µl (50 mM HEPES pH 7.4, 1 mM CaCl_2, MgCl_2, 0.5% BSA) and incubating for 90 minutes at 27° C. with shaking at 150 rpm. […] After washing, the filters were removed and bound ligand was quantitated by counting gamma emissions. Ligand binding by competition with unlabeled ligand was determined by incubation of 5×10^5 transfected cells (as above) with 1.5 nM of radiolabeled ligand and the indicated concentrations of unlabeled ligand. The samples were collected, washed and counted as above. The data was analyzed using the curve-fitting program Prism (GraphPad Inc., San Diego, Calif.) and the iterative non-linear regression program, LIGAND (PM220).

Assay [2] has as its target T1, FLAG-tagged 88C receptor. Briefly: cell-based or functional assay.
In assay [3] the target is T1, FLAG-tagged 88C receptor. Briefly: equilibrium binding of 125I-MIP-1β to HEK-293 cells expressing FLAG-tagged 88C, Scatchard analysis.
Description: as §1

B1: MIP-1β (ligand, UniProt P13236 24-92, looked up)
chain: APMGSDPPTACCFSYTARKLPRNFVVDYYETSSLCSQPAVVFQTKRSKQVCADPSESWVQEYVYDLELN
notes: also called MIP-1beta; radiolabeled MIP-1β
Molecule B1 registered an IC50 in the assay with FLAG-tagged 88C receptor [1] of 7.4 nM. Moreover, the “EC50 of inositol phosphate formation (phospholipase C assay), COS-7 cells co-transfected with Gqi5” value with FLAG-tagged 88C receptor [2] was found to be 6 nM. This molecule also had a Kd in the assay with FLAG-tagged 88C receptor [3] of 1.6 nM.

As usually defined, the IC50 is the concentration needed to halve the response being measured. Read a low IC50 as greater potency in that assay. As a reminder, the Kd is the equilibrium constant for the complex coming apart. Low values mean tighter binding, high ones weaker binding.
